From patent US20220162331A1 (CHENGDU CONMED BIOSCIENCES, published 2022)
Residue numbers refer to the chain shown, from its start. Each block holds one binder with its values, some of them ahead of it.

Legend:
[1] = molecular target: T1, human CD73 on Calu6 cells (human, UniProt P21589 27-549); assay: FACS on Calu6 cells
T1 construct: whole, on cells; Endogenous CD73 of the Calu6 cell line; also called CD73 on cell membrane surface
T1 sequence (looked up): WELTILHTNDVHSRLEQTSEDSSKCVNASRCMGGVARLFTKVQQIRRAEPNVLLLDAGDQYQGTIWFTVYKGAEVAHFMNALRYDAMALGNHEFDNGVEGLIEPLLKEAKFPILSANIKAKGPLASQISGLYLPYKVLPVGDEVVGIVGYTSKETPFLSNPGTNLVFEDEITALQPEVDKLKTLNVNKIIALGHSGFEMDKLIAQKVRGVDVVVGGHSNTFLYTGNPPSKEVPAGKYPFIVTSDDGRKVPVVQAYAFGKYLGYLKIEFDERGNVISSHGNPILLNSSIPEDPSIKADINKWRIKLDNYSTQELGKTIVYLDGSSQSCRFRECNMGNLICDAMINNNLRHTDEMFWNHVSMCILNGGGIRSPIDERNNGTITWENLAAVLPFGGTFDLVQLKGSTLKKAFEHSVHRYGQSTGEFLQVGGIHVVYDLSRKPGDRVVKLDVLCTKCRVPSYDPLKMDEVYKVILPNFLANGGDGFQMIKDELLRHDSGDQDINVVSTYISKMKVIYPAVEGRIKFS

[2] = molecular target: T1, human CD73 on Calu6 cells; assay: cell-based or functional assay
[3] = molecular target: T1, human CD73 on Calu6 cells; assay: cell-based or functional assay; remark: listed apart in the source
[4] = molecular target: T2, human full-length CD73 on hCD73-CHO-1C11 cells (human, UniProt P21589 27-549); assay: FACS on CHO-CD73-1C11 cells
T2 construct: it may be a nucleotide entry; also called CHO-CD73-1C11
T2 sequence: T1 sequence (looked up)

[5] = molecular target: T3, recombinant human CD73 extracellular domain (Trp27-Lys546) with C-terminal 6-histidine tag (human, UniProt P21589 27-547); assay: ELISA, plate coated with recombinant CD73 extracellular domain
T3 construct: also called hCD73; hCD73-cHis
T3 sequence: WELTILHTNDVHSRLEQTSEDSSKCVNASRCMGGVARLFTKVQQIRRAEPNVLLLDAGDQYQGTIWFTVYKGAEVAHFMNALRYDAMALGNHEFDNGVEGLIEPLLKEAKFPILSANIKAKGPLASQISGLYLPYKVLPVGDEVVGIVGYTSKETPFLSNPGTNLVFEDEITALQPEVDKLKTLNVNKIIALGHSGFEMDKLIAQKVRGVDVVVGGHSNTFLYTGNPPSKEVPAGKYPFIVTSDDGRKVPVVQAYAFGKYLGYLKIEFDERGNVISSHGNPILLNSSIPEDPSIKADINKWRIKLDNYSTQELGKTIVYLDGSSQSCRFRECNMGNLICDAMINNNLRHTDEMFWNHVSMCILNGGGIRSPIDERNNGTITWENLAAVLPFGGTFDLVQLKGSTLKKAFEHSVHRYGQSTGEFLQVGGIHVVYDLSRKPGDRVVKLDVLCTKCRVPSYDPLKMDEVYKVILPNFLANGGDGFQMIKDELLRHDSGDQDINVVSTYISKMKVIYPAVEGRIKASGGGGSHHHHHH

[6] = molecular target: T4, recombinant cynomolgus monkey CD73 extracellular domain (Trp27-Lys546) (cynomolgus monkey, UniProt P21589 27-547 (human entry)); assay: as above
T4 construct: also called cynoCD73; recombinant monkey CD73 extracellular domain
T4 chain: T3 sequence with M199T, T350A, V466I

[7] = molecular target: T3, recombinant human CD73 extracellular …; assay: SPR, Biacore T200, antibody captured on Protein A chip, hCD73 ECD as analyte, 1:1 Langmuir
Procedure: The affinity of CD73 antibody was determined by plasma surface resonance on Biacore T200. At room temperature, the antibody concentration was diluted to 0.5 μg/mL with 1×HBS-EP buffer (prepared from HBS-EP+Buffer 10×, GE, BR1008-26), the Protein A chip (GE, 29-1275-56) was coated with a flow rate of 10 μL per minute, the capture time was about 40 seconds, and the coated RU value was controlled to be about 100 RU. The recombinant human CD73 extracellular domain protein was diluted to 3 μg/mL with 1×HBS-EP buffer, diluted to two-fold gradient, a total of 6 concentrations, 200 μL of each concentration gradient. The 1×HBS-EP buffer was used as a control, the flow rate was 30 μl/min, the binding time was 120 seconds, and the dissociation time was 600 seconds. The affinity was fitted using Langmuir 1:1 Kinetic theoretical model and analyzed by Biacore T200 Evaluation Software (Table 3).

B2: humanized anti-CD73 antibody 22C12 VH-v10/VL-v2 (antibody, V domains shown)
VH: QVQLVQSGAEVKKPGASVKVSCKASGYTFTGYWIQWVRQAPGQGLEWMGAIYPGDEDTRYTQKFQGRVTMTADTSISTAYMELSRLRSDDTAVYYCARGNWDDWDFDVWGQGTTVTVSS
VL: DIQMTQSPSSLSASVGDRVTITCRASQDISNYLNWYQQKPGKAPKLLIHYTSRLHSGVPSRFSGSGSGTDYTLTISSLQPEDFATYYCQQGDTLPWTFGQGTKVEIK
notes: Human IgG1 CH1-CH3 constant region and kappa constant region; also called hu22C12 VHv10 (printed hu22C12 Vilv10) + hu22C12 Vkv2
- Kd [7]: 0.134 nM
- koff [7]: 0.000225 s⁻¹
- kon [7]: 1.68e+06 M⁻¹ s⁻¹

B5: CD73 antibody 14E4 (antibody, V domains shown)
VH: QVQLQQSGPELVKPGASVKISCKASGYIFTNYYIHWVKQRPGQGLEWIGWIFPGSGNTKYSEKFKDKATLTADTSSSTAYMQLSSLTSEDSAVYFCAGLSDWGQGTTLTVSS
VL: DIQMTQSPSSLSASLGERVSLTCRASQDIGDRLIWLQQEPAGTFKRLIYATSSLDSGVPKRFSGSRSGSDYSLTISSLESEDFVDYYCLQYASSPWTFGGGTKLEIK
notes: Mouse variable regions on human IgG heavy chain constant region and human kappa constant region (chimeric IgG); also called Clone 14E4
- EC50 [1]: 2.56 nM
- Inhibition of CD73 enzyme activity IC50(nM), Calu6 [2]: 4.57 nM
- CD73 endocytosis ratio %, 60 minutes [3]: 19.3%
- CD73 endocytosis ratio %, 120 minutes [3]: 2.6%
- CD73 endocytosis ratio %, 240 minutes [3]: 12.7%
- CD73 endocytosis ratio %, 480 minutes [3]: 2.6%
- EC50 [4]: 6.55 nM
- EC50 [5]: 0.06 nM
- EC50 [6]: 0.18 nM

B6: CD73 antibody 7E10 (antibody, V domains shown)
VH: QVQFQQSGAELVRPGASVKLSCKASGYIFSSYWIQWVKQRPGQGLEWIGAIYPGDGDTRYTQKFKDKATLTADKSSSTAYMQLSSLASEDSAVYYCAGFASWGQGTLVTVSA
VL: B5 VL with D31S, R32S, I34N, A41N, F44I, V84A, W96Y
notes: Mouse variable regions on human IgG heavy chain constant region and human kappa constant region (chimeric IgG); also called Clone 7E10
- EC50 [1]: 2.52 nM
- Inhibition of CD73 enzyme activity IC50(nM), Calu6 [2]: 7.66 nM
- CD73 endocytosis ratio %, 30 minutes [3]: 9.9%
- CD73 endocytosis ratio %, 60 minutes [3]: 25.1%
- CD73 endocytosis ratio %, 240 minutes [3]: 6.6%
- CD73 endocytosis ratio %, 480 minutes [3]: 6.2%
- EC50 [4]: 8.59 nM
- EC50 [5]: 0.07 nM
- EC50 [6]: 0.11 nM

B7: CD73 antibody 6A8 (antibody, V domains shown)
VH: B6 VH with V12A, A16T, S30T, V37I, D66G, D73E, S84R, V108L
VL: B5 VL with S20N, R32S, A41D, F44I, F83L, W96F
notes: Mouse variable regions on human IgG heavy chain constant region and human kappa constant region (chimeric IgG); also called Clone 6A8
- EC50 [1]: 3.51 nM
- Inhibition of CD73 enzyme activity IC50(nM), Calu6 [2]: 6.63 nM
- CD73 endocytosis ratio %, 60 minutes [3]: 16.2%
- EC50 [4]: 11 nM
- EC50 [5]: 0.08 nM
- EC50 [6]: 0.09 nM

B9: CD73 antibody 8A8 (antibody, V domains shown)
VH: B6 VH with V12A, S30T, V37I, D66G, S84R, V108L
VL: B5 VL with D31E, R32S, A41D, F44I, T74S, E81D, A92S, W96Y
notes: Mouse variable regions on human IgG heavy chain constant region and human kappa constant region (chimeric IgG); also called Clone 8A8
- EC50 [1]: 0.61 nM
- Inhibition of CD73 enzyme activity IC50(nM), Calu6 [2]: 4.89 nM
- CD73 endocytosis ratio %, 30 minutes [3]: 21.2%
- CD73 endocytosis ratio %, 60 minutes [3]: 25.6%
- CD73 endocytosis ratio %, 120 minutes [3]: 27.3%
- CD73 endocytosis ratio %, 240 minutes [3]: 44.2%
- CD73 endocytosis ratio %, 480 minutes [3]: 40.5%
- EC50 [4]: 1.47 nM
- EC50 [5]: 0.02 nM
- EC50 [6]: 0.02 nM

B10: CD73 antibody 2D4 (antibody, V domains shown)
VH: EVKLVESGGGLVQPGGSLKLSCATSGFTFSDYYMYWVRQTPEKRLEWVAYISNVGGSTYYPDTVKGRFTISRDNAKNTLYLQMSRLKSEDTAIYYCARGDGYYGYYFDVWGAGTTVTVSS
VL: QIVLTQSPAIMSASPGEKVTMTCSASSSVSYMHWYQQKSGTSPKRWIYDTSKLASGVPARFSGSGSGTSYSLTISSMEAEDAATYYCQQWSSNPYTFGGGTKLEIK
notes: also called Clone 2D4
- EC50 [1]: 1.25 nM
- Inhibition of CD73 enzyme activity IC50(nM), Calu6 [2]: 0.47 nM
- CD73 endocytosis ratio %, 30 minutes [3]: 19.1%
- CD73 endocytosis ratio %, 60 minutes [3]: 28.1%
- CD73 endocytosis ratio %, 120 minutes [3]: 29.7%
- CD73 endocytosis ratio %, 240 minutes [3]: 39.5%
- CD73 endocytosis ratio %, 480 minutes [3]: 36.9%
- EC50 [4]: 1.76 nM
- EC50 [5]: 0.02 nM
- EC50 [6]: 0.02 nM

B11: CD73 antibody 2H2 (antibody, V domains shown)
VH: B10 VH with I93M
VL: B10 VL with Q1E, I2N, A59T, Y70F
notes: also called Clone 2H2
- EC50 [1]: 0.93 nM
- Inhibition of CD73 enzyme activity IC50(nM), Calu6 [2]: 4.03 nM
- CD73 endocytosis ratio %, 30 minutes [3]: 22.4%
- CD73 endocytosis ratio %, 60 minutes [3]: 27.4%
- CD73 endocytosis ratio %, 120 minutes [3]: 45.8%
- CD73 endocytosis ratio %, 240 minutes [3]: 33.4%
- CD73 endocytosis ratio %, 480 minutes [3]: 49.3%
- EC50 [4]: 1.53 nM
- EC50 [5]: 0.02 nM
- EC50 [6]: 0.02 nM

Further lines, results first:

- EC50 [1]: 1.2 nM
- Inhibition of CD73 enzyme activity IC50(nM), Calu6 [2]: 0.97 nM
- CD73 endocytosis ratio %, 60 minutes [3]: 6.1%
- CD73 endocytosis ratio %, 120 minutes [3]: 11.1%
- CD73 endocytosis ratio %, 480 minutes [3]: 13.2%
- EC50 [4]: 1.43 nM
- EC50 [5]: 0.04 nM
- EC50 [6]: 0.05 nM
B1: CD73 antibody 22C12 (antibody, V domains shown)
VH: QVQFQQSGAELARPGASVKLSCKASGYTFTGYWIQWVKQRPGQGLEWIGAIYPGDDDTRYTQKFKGRATLTADTSSSTAYMQLSSLASEDSAVYYCARGNWDDWDFDVWGAGTTVTVSS
VL: DIQMTQTTSSLSASLGDRVTISCRASQDISNYLNWYQQKPDGTVKLLIHYTSRLHSGVPSRFSGSGSGTDYSLTISNLEQEDIATYFCQQGDTLPWTFGGGTKLEIK
notes: Mouse variable regions on human IgG heavy chain constant region and human kappa constant region (chimeric IgG); also called Clone 22C12; mAb22C12

- Kd [7]: 0.0956 nM
- koff [7]: 0.000179 s⁻¹
- kon [7]: 1.87e+06 M⁻¹ s⁻¹
B3: humanized anti-CD73 antibody 22C12 VH-v10/VL-v3 (antibody, V domains shown)
VH: B2 VH
VL: B2 VL with Y71F
notes: Human IgG1 CH1-CH3 constant region and kappa constant region; also called hu22C12 VHv10 (printed hu22C12 Vilv10) + hu22C12 Vkv3

- Kd [7]: 0.135 nM
- koff [7]: 0.000165 s⁻¹
- kon [7]: 1.22e+06 M⁻¹ s⁻¹
B4: humanized anti-CD73 antibody 22C12 VH-v9/Vk-v2 (antibody, V domains shown)
VH: B2 VH with E56S
VL: B2 VL
notes: Human IgG1 CH1-CH3 constant region and kappa constant region; also called hu22C12 VHv9 (printed hu22C12V11v9) + hu22C12 Vkv2

- EC50 [1]: 2.28 nM
- Inhibition of CD73 enzyme activity IC50(nM), Calu6 [2]: 1.71 nM
- CD73 endocytosis ratio %, 60 minutes [3]: 33.1%
- EC50 [4]: 2.62 nM
- EC50 [5]: 0.03 nM
- EC50 [6]: 0.07 nM
B8: CD73 antibody 14H10 (antibody, V domains shown)
VH: QIQLQQSGAELARPGASVNLSCKASGYSFTSYWMQWLKQRPGQGLEWIGAIYPGDGDTRYTQKFKGKATLTADKSSSTAYMQLSSLASEDSAVYYCALFSYWGQGTLVTVSA
VL: B5 VL with D31S, R32S, I34N, A41D, S53T, S94F, W96Y
notes: Mouse variable regions on human IgG heavy chain constant region and human kappa constant region (chimeric IgG)

- Kd [7]: 0.272 nM
- koff [7]: 0.000106 s⁻¹
- kon [7]: 389000 M⁻¹ s⁻¹
B12: humanized anti-CD73 antibody 6G8 VH-v1/VK-v1 (antibody, V domains shown)
VH: QVTLRESGPALVKPTQTLTLTCTFSGFSLSTSGMGVGWIRQPPGKALEWLAHIWWDDDKYYNPSLKSRLTISKDTSKNQVVLTMTNMDPVDTATYYCARRERWAWFAYWGQGTLVTVSS
VL: DIQMTQSPSSLSASVGDRVTITCRASQNVFTNVAWYQQKPGKAPKVLIYSASYRYSGVPSRFSGSGSGTDFTLTISSLQPEDFATYFCQQYNSYPTFGQGTKLEIK
notes: Human IgG1 CH1-CH3 constant region and kappa constant region; also called hu6G8 VHv1 + hu6G8 Vkv1
